Test results from the supplement of paper PMC7877785.
± gives the uncertainty stated by the source.

Assay: self-splicing fitness, log relative to wild type (ln ratio); higher = more splicing; Tetrahymena group I intron in knt gene, E. coli kanamycin selection, DiMSum; sequences stand for … in CUCUCU…GGAGGGAAAAGUUAUCAGGCAUGCACCUGGUAGCUAGUCUUUAAACCAAUAGAUUGCAUCGGUUUAAAAGGCAAGACCGUCAAAUUGCGGGAAAGGGGUCAACAGCCGUUCAGUACCAAGUCUCAGGGGAAACUUUGAGAUGGCCUUGCAAAGGGUAUGGUAAUAAGCUGACGGACAUGGUCCUAACCACGCAGCCAAGUCCUAAGUCAACAGAUCUUCUGUUGAUAUGGAUGCAGUUCACAGACUAAAUGUCGGUCGGGGAAGAUGUAUUCUUCUCAUAAGAUAUAGUCGGACCUCUCCUUAAUGGGAGCUAGCGGAUGAAGUGAUGCAACACUGGAGCCGCUGGGAACUAAUUUGUAUGCGAAAGUAUAUUGAUUAGUUUUGGAGUACUCGUGGUCG
How it was run: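 Fitness was computed with DiMSum as the error-weighted combination of replicate fold changes, kanamycin versus none, each normalised to wild type. The library randomised all eight intron nucleotides of the P1ex region, with the intron placed in the knt kanamycin-resistance gene on pET-22b(+) in E. coli BL21(DE3). Six replicate transformations were grown overnight at 37°C or 30°C on LB agar with or without 25 μg/mL kanamycin, plus 100 μg/mL carbenicillin, 50 μM IPTG and 0.2% rhamnose. Pooled colonies were amplicon-sequenced on an Illumina HiSeq 2500.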

Row | Sequence | self-splicing fitness (ln) (30 °C) | self-splicing fitness (ln) (37 °C)
1 | CUGGAGCAAUAUUACGACAG | -4.83 ± 0.31 | -2.42 ± 0.49
2 | CUGGAGCAAUAUUACGACGU |  | -1.09 ± 0.2
3 | CUGGAGCAAUAUUACGACUA | -1.37 ± 0.28 | -1.38 ± 0.31
4 | CUGGAGCAAUAUUACGACUG | 0.202 ± 0.15 | 0.00578 ± 0.21
5 | CUGGAGCAAUAUUACGACUU | -3.44 ± 0.38 | -2.38 ± 0.39
6 | CUGGAGCAAUAUUACGAGCG | -1.05 ± 0.094 | -0.179 ± 0.11
7 | CUGGAGCAAUAUUACGCAAU | -3.93 ± 0.33 | -2.08 ± 0.29
8 | CUGGAGCAAUAUUACGCAGA | -3.56 ± 0.37 | 
9 | CUGGAGCAAUAUUACGCCAG |  | -2.59 ± 0.33
10 | CUGGAGCAAUAUUACGCCAU |  | -2.32 ± 0.34
11 | CUGGAGCAAUAUUACGCCCA |  | -2.1 ± 0.5
12 | CUGGAGCAAUAUUACGCGGG | -3.62 ± 0.33 | -2.33 ± 0.31
13 | CUGGAGCAAUAUUACGCUGG |  | -2.98 ± 0.35
14 | CUGGAGCAAUAUUACGGAUC | -2.82 ± 0.21 | -2.87 ± 0.35
15 | CUGGAGCAAUAUUACGGCGC |  | -1.02 ± 0.41
16 | CUGGAGCAAUAUUACGUAAU | -2.46 ± 0.29 | 
17 | CUGGAGCAAUAUUACGUACU |  | -2.19 ± 0.43
18 | CUGGAGCAAUAUUACGUGGA | -1.96 ± 0.23 | -2.63 ± 0.48
19 | CUGGAGCAAUAUUACGUUGA | -1.67 ± 0.34 | -2.26 ± 0.49
20 | CUGGAGCAAUAUUACGUUUC | -3.92 ± 0.31 | -2.38 ± 0.31
21 | CUGUAGCAAUAUUACGACAU | -1.528 ± 0.014 | -0.616 ± 0.033
22 | CUGUAGCAAUAUUACGACUG | -0.156 ± 0.12 | -0.0808 ± 0.17
23 | CUGUAGCAAUAUUACGAGUU | -2.02 ± 0.3 | -3.02 ± 0.37
24 | CUGUAGCAAUAUUACGAUUC | -3.71 ± 0.23 | -3.19 ± 0.4
25 | CUGUAGCAAUAUUACGGACC | -2.03 ± 0.47 | 
26 | CUGUAGCAAUAUUACGGAUC | -3.93 ± 0.3 | -3.45 ± 0.39

Row | Sequence | self-splicing fitness (ln) (30 °C) | self-splicing fitness (ln) (37 °C)
27 | CUGUAGCAAUAUUACGGGAC | -1.04 ± 0.18 | -0.365 ± 0.21
28 | CUGUAGCAAUAUUACGGGCA |  | -2.5 ± 0.49
29 | CUGUAGCAAUAUUACGGGUG | -0.818 ± 0.084 | -1.15 ± 0.099
30 | CUGUAGCAAUAUUACGGUUC | -3.87 ± 0.14 | -3.71 ± 0.22
31 | CUGUAGCAAUAUUACGUAAG | -0.583 ± 0.081 | -0.353 ± 0.082
32 | CUGUAGCAAUAUUACGUAUU | -4.45 ± 0.29 | -3.47 ± 0.33
33 | CUGUAGCAAUAUUACGUUAU | -3.21 ± 0.22 | -2.83 ± 0.23
34 | CUGUAGCAAUAUUACGUUCG | -0.00257 ± 0.13 | 0.798 ± 0.14
35 | CUUAAGCAAUAUUACGAAGC | -3.09 ± 0.36 | -2.17 ± 0.31
36 | CUUAAGCAAUAUUACGAAUC | -2.97 ± 0.23 | 
37 | CUUAAGCAAUAUUACGACAC | -3.04 ± 0.38 | -1.54 ± 0.44
38 | CUUAAGCAAUAUUACGACCG | 0.42 ± 0.14 | -0.4 ± 0.16
39 | CUUAAGCAAUAUUACGAGAU | -2.92 ± 0.22 | -1.59 ± 0.2
40 | CUUAAGCAAUAUUACGCAAC | -3.55 ± 0.27 | -2.37 ± 0.26
41 | CUUAAGCAAUAUUACGCGCA | -3.58 ± 0.35 | 
42 | CUUAAGCAAUAUUACGCGGC | -2.93 ± 0.24 | -2.48 ± 0.27
43 | CUUAAGCAAUAUUACGCGGG | -2.83 ± 0.2 | -2.92 ± 0.31
44 | CUUAAGCAAUAUUACGGCGU | -3.35 ± 0.2 | -1.89 ± 0.17
45 | CUUAAGCAAUAUUACGGGCA | -3.03 ± 0.23 | -2.3 ± 0.25
46 | CUUAAGCAAUAUUACGGGCG | -0.789 ± 0.13 | -0.48 ± 0.14
47 | CUUAAGCAAUAUUACGGUCA | -3.8 ± 0.46 | -3.15 ± 0.32
48 | CUUAAGCAAUAUUACGGUGU | -3.31 ± 0.22 | -2.02 ± 0.18
49 | CUUAAGCAAUAUUACGUAAG | -2.83 ± 0.1 | -1.27 ± 0.098
50 | CUUAAGCAAUAUUACGUAGU | -3.14 ± 0.13 | -2.3 ± 0.18
51 | CUUAAGCAAUAUUACGUAUG | -1.37 ± 0.056 | -1.24 ± 0.073
52 | CUUAAGCAAUAUUACGUCAU | -4.2 ± 0.26 | -2.84 ± 0.19

Row | Sequence | self-splicing fitness (ln) (30 °C) | self-splicing fitness (ln) (37 °C)
53 | CUUAAGCAAUAUUACGUCGA | -1.85 ± 0.19 | -2.19 ± 0.38
54 | CUUAAGCAAUAUUACGUGCA | -2.91 ± 0.19 | -1.34 ± 0.18
55 | CUUAAGCAAUAUUACGUGCG | -1.34 ± 0.079 | -0.172 ± 0.1
56 | CUUAAGCAAUAUUACGUUAA | -3.97 ± 0.39 | -2.63 ± 0.32
57 | CUUAAGCAAUAUUACGUUUC | -3.98 ± 0.17 | -3.23 ± 0.28
58 | CUUCAGCAAUAUUACGAAAU | -2.2 ± 0.31 | -2.4 ± 0.5
59 | CUUCAGCAAUAUUACGAAUA | -2.77 ± 0.14 | -2.09 ± 0.13
60 | CUUCAGCAAUAUUACGACGA |  | -1.54 ± 0.37
61 | CUUCAGCAAUAUUACGAGCG | -0.695 ± 0.058 | -0.136 ± 0.085
62 | CUUCAGCAAUAUUACGAGGA | -2.73 ± 0.26 | -1.64 ± 0.24
63 | CUUCAGCAAUAUUACGAGUU | -3.14 ± 0.2 | -2.03 ± 0.2
64 | CUUCAGCAAUAUUACGAUGC | -2.93 ± 0.21 | -2.23 ± 0.23
65 | CUUCAGCAAUAUUACGAUUC | -2.88 ± 0.21 | -1.85 ± 0.16
66 | CUUCAGCAAUAUUACGCAAC | -2.86 ± 0.21 | 
67 | CUUCAGCAAUAUUACGCACA | -2.37 ± 0.24 | 
68 | CUUCAGCAAUAUUACGCCAC | -2.72 ± 0.5 | 
69 | CUUCAGCAAUAUUACGCCUC |  | -3.49 ± 0.32
70 | CUUCAGCAAUAUUACGCUUA | -3.34 ± 0.2 | -2.4 ± 0.17
71 | CUUCAGCAAUAUUACGGACG | -0.00287 ± 0.06 | -0.541 ± 0.073
72 | CUUCAGCAAUAUUACGUACG | -0.327 ± 0.062 | 0.542 ± 0.088
73 | CUUCAGCAAUAUUACGUAGA | -3.3 ± 0.19 | -2.92 ± 0.27
74 | CUUCAGCAAUAUUACGUAGC | -3.62 ± 0.16 | -2.95 ± 0.25
75 | CUUCAGCAAUAUUACGUCAA | -1.25 ± 0.34 | 
76 | CUUGAGCAAUAUUACGAAAU | -2.7 ± 0.2 | -3.68 ± 0.46
77 | CUUGAGCAAUAUUACGACCA | -1.41 ± 0.32 | 
78 | CUUGAGCAAUAUUACGAGAA | -2.73 ± 0.4 | 

Row | Sequence | self-splicing fitness (ln) (30 °C) | self-splicing fitness (ln) (37 °C)
79 | CUUGAGCAAUAUUACGAUAU |  | -1.76 ± 0.39
80 | CUUGAGCAAUAUUACGAUCG | -1.2 ± 0.16 | -0.798 ± 0.23
81 | CUUGAGCAAUAUUACGAUUA | -3.25 ± 0.26 | -2.36 ± 0.35
82 | CUUGAGCAAUAUUACGAUUU |  | -2.09 ± 0.39
83 | CUUGAGCAAUAUUACGCAGA | -1.11 ± 0.26 | -1.91 ± 0.3
84 | CUUGAGCAAUAUUACGCCCU |  | -2.21 ± 0.46
85 | CUUGAGCAAUAUUACGCCUG |  | -1.13 ± 0.36
86 | CUUGAGCAAUAUUACGCUAC | -2.82 ± 0.49 | -2.02 ± 0.45
87 | CUUGAGCAAUAUUACGCUUC | -2.91 ± 0.28 | -1.96 ± 0.45
88 | CUUGAGCAAUAUUACGCUUU | -2.88 ± 0.32 | -3.35 ± 0.31
89 | CUUGAGCAAUAUUACGGAAC | -2.25 ± 0.2 | -2.61 ± 0.33
90 | CUUGAGCAAUAUUACGGACG | -0.339 ± 0.15 | 0.256 ± 0.26
91 | CUUGAGCAAUAUUACGGCCG |  | -0.18 ± 0.27
92 | CUUGAGCAAUAUUACGGCGU | -3.95 ± 0.34 | -2.76 ± 0.26
93 | CUUGAGCAAUAUUACGGGGG | -2.81 ± 0.2 | -3.25 ± 0.39
94 | CUUGAGCAAUAUUACGGUUC | -3.56 ± 0.35 | -2.51 ± 0.36
95 | CUUGAGCAAUAUUACGUGAA | -3.07 ± 0.2 | -2.36 ± 0.3
96 | CUUGAGCAAUAUUACGUGUC | -2.02 ± 0.22 | -2.28 ± 0.26
97 | CUUUAGCAAUAUUACGAAUU |  | -3.6 ± 0.46
98 | CUUUAGCAAUAUUACGACAG | -0.431 ± 0.071 | -0.339 ± 0.097
99 | CUUUAGCAAUAUUACGACGG | -0.354 ± 0.13 | -0.827 ± 0.16
100 | CUUUAGCAAUAUUACGAGAC | -1.83 ± 0.36 | -2.9 ± 0.4
101 | CUUUAGCAAUAUUACGAGGU | -3.4 ± 0.23 | -2.3 ± 0.27
102 | CUUUAGCAAUAUUACGAUAG | -0.991 ± 0.11 | -0.782 ± 0.14
103 | CUUUAGCAAUAUUACGAUUG | -0.504 ± 0.12 | 0.118 ± 0.17
104 | CUUUAGCAAUAUUACGCAUU | -4.72 ± 0.31 | -3.51 ± 0.23
